The assay addresses histone H3 peptide H3K4me3-K9me2 1-24 (Homo sapiens, UniProt P68431, H3K4me3+H3K9me2). Description: ITC.

B1: KIAA1718 1-488 (protein)
chain: MAGAAAAVAAGAAAGAAAAAVSVAAPGRASAPPPPPPVYCVCRQPYDVNRFMIECDICKDWFHGSCVGVEEHHAVDIDLYHCPNCAVLHGSSLMKKRRNWHRHDYTEIDDGSKPVQAGTRTFIKELRSRVFPSADEIIIKMHGSQLTQRYLEKHGFDVPIMVPKLDDLGLRLPSPTFSVMDVERYVGGDKVIDVIDVARQADSKMTLHNYVKYFMNPNRPKVLNVISLEFSDTKMSELVEVPDIAKKLSWVENYWPDDSVFPKPFVQKYCLMGVQDSYTDFHIDFGGTSVWYHVLWGEKIFYLIKPTDENLARYESWSSSVTQSEVFFGDKVDKCYKCVVKQGHTLFVPTGWIHAVLTSQDCMAFGGNFLHNLNIGMQLRCYEMEKRLKTPDLFKFPFFEAICWFVAKNLLETLKELREDGFQPQTYLVQGVKALHTALKLWMKKELVSEHAFEIPDNVRPGHLIKELSKVIRAIEEENGKPVKSQGI
Regarding B1, the Kd was approximately 300 nM.

B2: PHF8 1-447 (protein)
chain: MNRSRAIVQRGRVLPPPAPLDTTNLAGRRTLQGRAKMASVPVYCLCRLPYDVTRFMIECDMCQDWFHGSCVGVEEEKAADIDLYHCPNCEVLHGPSIMKKRRGSSKGHDTHKGKPVKTGSPTFVRELRSRTFDSSDEVILKPTGNQLTVEFLEENSFSVPILVLKKDGLGMTLPSPSFTVRDVEHYVGSDKEIDVIDVTRQADCKMKLGDFVKYYYSGKREKVLNVISLEFSDTRLSNLVETPKIVRKLSWVENLWPEECVFERPNVQKYCLMSVRDSYTDFHIDFGGTSVWYHVLKGEKIFYLIRPTNANLTLFECWSSSSNQNEMFFGDQVDKCYKCSVKQGQTLFIPTGWIHAVLTPVDCLAFGGNFLHSLNIEMQLKAYEIEKRLSTADLFRFPNFETICWYVGKHILDIFRGLRENRRHPASYLVHGGKALNLAFRAWTRKE
In the case of B2, the Kd is approximately 1000 nM.

The values above are taken from PMC2849977 (2009).
